Measurements from patent US12070483B2, “Compositions and methods for treatment of acute lung injury” (THE TRUSTEES OF THE UNIVERSITY OF PENNSYLVANIA, priority 2018, dated 2024).

Legend:
recombinant hPrdx6 = molecular target: T1, recombinant hPrdx6 (Homo sapiens, UniProt P30041); assay: aiPLA2 activity of recombinant human Prdx6 in presence of peptide; type: biochemical; conditions: for aiPLA2 activity of human recombinant protein: Table 2, hPrdx6 only 92.0
T1 sequence (P30041 1-224): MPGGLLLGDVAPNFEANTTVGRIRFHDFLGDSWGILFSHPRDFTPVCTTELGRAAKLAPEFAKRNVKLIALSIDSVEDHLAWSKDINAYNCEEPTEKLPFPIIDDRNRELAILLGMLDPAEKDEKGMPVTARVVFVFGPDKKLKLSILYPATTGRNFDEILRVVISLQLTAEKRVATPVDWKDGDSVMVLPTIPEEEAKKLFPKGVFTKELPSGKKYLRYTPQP

Prdx6 = molecular target: T2, Prdx6 (Mus musculus, UniProt O08709); assay: aiPLA2 (Prdx6-PLA2) activity of mouse lung homogenate after IT or IV injection of PIP; type: in vivo; parameters: key to aiPLA2 activity, figure in parentheses (0 h = 100): Prdx6-PLA2 activity as % of 0 h value (0 h = 100); conditions: for Prdx6-PLA2 activity of mouse lung homogenate: Table 6; for aiPLA2 activity of mouse lung: 24 hours after IV injection, 2 μg/g, liposomes only 8.81
T2 construct: from tissue; host or cells: mouse lung homogenate (wild type mice)
T2 sequence (O08709 1-224): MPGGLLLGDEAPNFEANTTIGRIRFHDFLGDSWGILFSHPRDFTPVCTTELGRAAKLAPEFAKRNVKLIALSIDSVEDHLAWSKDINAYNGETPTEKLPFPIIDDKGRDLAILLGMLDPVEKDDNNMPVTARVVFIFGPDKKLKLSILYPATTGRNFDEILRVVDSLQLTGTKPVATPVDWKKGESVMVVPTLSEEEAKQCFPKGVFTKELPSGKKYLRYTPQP
Description: FIG. 6: PIP-2 in liposomes was administered to mice either intratracheally (IT) or intravenously (IV) at 0 time. Lungs were harvested at intervals between 4 and 72 h after the PIP-2 administration, homogenized, and analyzed for Prdx6-PLA2 activity. PIP-2 is effective by either the IT or IV route with a calculated ½ time for recovery of ˜50 h. Results are mean+SE for N=3-4.
PIP-2 in liposomes injected IV or IT inhibits Prdx6 activity of the lung homogenate. Maximal inhibition was seen within 4 hours after administration of PIP-2. Recovery from inhibition began at ˜36 hours and was complete by 48 hours. Results are similar for PIP-1,2,4 (PIP-3 and -5 were not tested). […] Effectiveness requires liposomes for peptide delivery. Inhibition after IT or IV administration was similar.

NOX2 = assay: ROS production (Amplex red) of isolated perfused mouse lung stimulated with angiotensin II; type: in vivo; conditions: for ROS production by AngII-activated NOX2 in the isolated mouse lung: ex_vivo
Description: FIGS. 5A and 5B: PIP-2, incorporated within liposomes, was instilled intratracheally prior to lung isolation. FIG. 5A: Isolated lungs were perfused in a recirculating system with artificial medium. NOX2 activity was stimulated by addition of angiotensin II (Ang II). Amplex red along with horseradish peroxidase were added to the perfusate for detection of ROS production. Aliquots of perfusate were analyzed at intervals by spectrophotometry to determine oxidation of amplex red, indicating ROS production. Results are mean±SE for N=3-4. FIG. 5B: Mice were sacrificed at 6, 12, or 24 h after LPS administration ([…]) and lungs were perfused in situ for 15 min with saline solution containing a fluorophore (difluorofluorescein diacetate, DFFDA). Lungs then were homogenized and fluorescence of the lung homogenate was determined as an index of ROS production. Results for FIG. 5A & FIG. 5B are mean±SE for N=4. *P<0.05 vs corresponding LPS and LPS+PIP-2; § P<0.05 vs 12 h and 24 h LPS; ΔP<0.05 vs corresponding LPS.
FIG. 8: PLA2 inhibitory peptide (PIP-2) inhibits ROS production stimulated by angiotensin II (Ang II) in isolated perfused mouse lung. PIP-2 (2 μg/g body weight) was administered to intact wild type (WT) mice by the IV route. […] After 30 mins, lungs were isolated from anesthesized mice and perfused in a recirculating system with added Ang II ([…]) as a Nox2 activator and Amplex red plus horseradish peroxidase to detect perfusate ROS. WT basal lungs were not stimulated with Ang II. After a 15 min equilibration period (called zero time), aliquots were taken at 15 min intervals for analysis of fluorescence. Each plotted point represents the mean±SE for n=3. The lines were drawn by the least mean squares method. The mean rates of ROS […] calculated from the slope of each line are indicated in parentheses. *P<0.05 vs the other 3 slopes.
FIG. 10: Effect of liposome composition on delivery of PIP-2 to lungs after IV administration. […]
The effect of the PIPs on ROS production in control (untreated) lungs was determined in vitro with isolated perfused lungs. […] The basal rate of ROS production was evaluated with WT lungs that were perfused in the absence of AngII. […] Aliquots of perfusate were taken at 15 min intervals and analyzed by fluorescence for resorufin (λexcitation 568 nm, λemission 581 nm), the product of Amplex red oxidation. The rate of Amplex red oxidation was calculated and expressed as arbitrary fluorescence units (AFU) with normalization to mouse body wt. There was a low rate of Amplex red oxidation in the absence of HRP in the perfusate (˜7% of the AngII-stimulated fluorescence), indicating a non-ROS-mediated oxidation of the fluorophore; this value was subtracted to obtain the reported values.

## LHDFRHQIL (Inhibitory peptide.) [PIP-2]
Recombinant hPrdx6
  aiPLA2 activity of human recombinant protein: 29.9 nmol/min/mg prot.
Recombinant hPrdx6; Table 3, hPrdx6 only 99.91
  aiPLA2 activity of human recombinant Prdx6: 26.18 nmol/min/mg prot.
Prdx6; IT, 0 h post injection
  aiPLA2 activity of mouse lung homogenate: 8.84 ± 0.35 nmol/hr/mg protein
  aiPLA2 activity, figure in parentheses (0 h = 100): 100
Prdx6; IT, 4 h post injection
  aiPLA2 activity of mouse lung homogenate: 1.56 ± 0.03 nmol/hr/mg protein
  aiPLA2 activity, figure in parentheses (0 h = 100): 18
Prdx6; IT, 12 h post injection
  aiPLA2 activity of mouse lung homogenate: 1.61 ± 0.04 nmol/hr/mg protein
  aiPLA2 activity, figure in parentheses (0 h = 100): 18
Prdx6; IT, 24 h post injection
  aiPLA2 activity of mouse lung homogenate: 1.63 ± 0.14 nmol/hr/mg protein
  aiPLA2 activity, figure in parentheses (0 h = 100): 18
Prdx6; IT, 36 h post injection
  aiPLA2 activity of mouse lung homogenate: 2.04 ± 0.04 nmol/hr/mg protein
  aiPLA2 activity, figure in parentheses (0 h = 100): 27
Prdx6; IT, 48 h post injection
  aiPLA2 activity of mouse lung homogenate: 2.95 ± 0.10 nmol/hr/mg protein
  aiPLA2 activity, figure in parentheses (0 h = 100): 33
Prdx6; IT, 72 h post injection
  aiPLA2 activity of mouse lung homogenate: 8.78 ± 0.18 nmol/hr/mg protein
  aiPLA2 activity, figure in parentheses (0 h = 100): 99
Prdx6; IV, 0 h post injection
  aiPLA2 activity of mouse lung homogenate: 8.85 ± 0.3 nmol/hr/mg protein
  aiPLA2 activity, figure in parentheses (0 h = 100): 100
Prdx6; IV, 4 h post injection
  aiPLA2 activity of mouse lung homogenate: 1.45 ± 0.07 nmol/hr/mg protein
  aiPLA2 activity, figure in parentheses (0 h = 100): 16
Prdx6; IV, 12 h post injection
  aiPLA2 activity of mouse lung homogenate: 1.58 ± 0.04 nmol/hr/mg protein
  aiPLA2 activity, figure in parentheses (0 h = 100): 18
Prdx6; IV, 24 h post injection
  aiPLA2 activity of mouse lung homogenate: 1.77 ± 0.11 nmol/hr/mg protein
  aiPLA2 activity, figure in parentheses (0 h = 100): 20
Prdx6; IV, 36 h post injection
  aiPLA2 activity of mouse lung homogenate: 2.14 ± 0.03 nmol/hr/mg protein
  aiPLA2 activity, figure in parentheses (0 h = 100): 24
Prdx6; IV, 48 h post injection
  aiPLA2 activity of mouse lung homogenate: 3.03 ± 0.05 nmol/hr/mg protein
  aiPLA2 activity, figure in parentheses (0 h = 100): 34
Prdx6; IV, 72 h post injection
  aiPLA2 activity of mouse lung homogenate: 8.49 ± 0.10 nmol/hr/mg protein
  aiPLA2 activity, figure in parentheses (0 h = 100): 96
Prdx6; PIP-2 in liposomes IV or IT
  time at which recovery from inhibition began: ~36 h
  time at which recovery from inhibition was complete: ≤ 48 h
  time to maximal inhibition of Prdx6 activity of lung homogenate: ≤ 4 h
Prdx6; PIP-2 in liposomes, IT or IV
  calculated ½ time for recovery of Prdx6-PLA2 activity: ~50 h
Prdx6; IT, lungs lavaged prior to assay, 0 post injection
  Prdx6-PLA2 activity of mouse lung homogenate: 8.1 ± 0.3 nmol/hr/mg protein
Prdx6; IT, lungs lavaged, 24 hr post injection
  Prdx6-PLA2 activity of mouse lung homogenate: 1.2 ± 0.02 nmol/hr/mg protein
Prdx6; IT, lungs lavaged, 48 hr post injection
  Prdx6-PLA2 activity of mouse lung homogenate: 3.0 ± 0.2 nmol/hr/mg protein
Prdx6; IT, lungs lavaged, 72 hr post injection
  Prdx6-PLA2 activity of mouse lung homogenate: 8.3 ± 0.9 nmol/hr/mg protein
NOX2; PIP-2 2 μg/g in liposomes IV, WT lungs, Ang II 50 μM
  inhibition of ROS production: ~75%
NOX2
  ROS production by AngII-activated NOX2 in the isolated mouse lung: inhibit ROS production

## LYEIKHQIL (Inhibitory peptide.) [PIP-4]
Recombinant hPrdx6
  aiPLA2 activity of human recombinant protein: 32.3 nmol/min/mg prot.
Prdx6; alone, no liposomes
  aiPLA2 activity of mouse lung: 8.43 ± 0.23 (n = 3) nmol/hr/mg prot
Prdx6; in liposomes
  aiPLA2 activity of mouse lung: 1.55 ± 0.02 (n = 3) nmol/hr/mg prot
Prdx6; IV, 0 post injection
  Prdx6-PLA2 activity of mouse lung homogenate: 8.0 ± 0.7 nmol/hr/mg protein
Prdx6; IV, 24 hr post injection
  Prdx6-PLA2 activity of mouse lung homogenate: 1.1 ± 0.02 nmol/hr/mg protein
Prdx6; IV, 48 hr post injection
  Prdx6-PLA2 activity of mouse lung homogenate: 2.8 ± 0.2 nmol/hr/mg protein
Prdx6; IV, 72 hr post injection
  Prdx6-PLA2 activity of mouse lung homogenate: 7.8 ± 1.2 nmol/hr/mg protein
Prdx6; IV, 96 hr post injection
  Prdx6-PLA2 activity of mouse lung homogenate: 8.1 ± 0.2 nmol/hr/mg protein
NOX2
  ROS production by AngII-activated NOX2 in the isolated mouse lung: inhibit ROS production
